Experimental data reported in patent publication US20140087995A1 (published 2014).
Numbered stars: 1 amine (or outer) side, 2 acyl side, 3 side chain; on linkers, the order of the positions; unused ones are H or OH. Bridge positions count the residues as written; N and C are the ends. Side chains are listed from the residue outwards. Ends that are not written are not given here. * marks the point of attachment. C20 diacid = O=C(O)CCCCCCCCCCCCCCCCCCC(=O)*; γGlu = O=C(O)[C@H](CCC(=O)[*:2])N[*:1]; AEEA = NCCOCCOCC(=O)O

Biological target: T1, human amylin receptor (amylin 3(a) receptor: human calcitonin receptor with RAMP-3) (human, UniProt P30988 25-474; O60896 24-148)
T1 construct: whole, on cells; also called hAmylin-R; hAmylinR
T1 sequence (looked up) 1: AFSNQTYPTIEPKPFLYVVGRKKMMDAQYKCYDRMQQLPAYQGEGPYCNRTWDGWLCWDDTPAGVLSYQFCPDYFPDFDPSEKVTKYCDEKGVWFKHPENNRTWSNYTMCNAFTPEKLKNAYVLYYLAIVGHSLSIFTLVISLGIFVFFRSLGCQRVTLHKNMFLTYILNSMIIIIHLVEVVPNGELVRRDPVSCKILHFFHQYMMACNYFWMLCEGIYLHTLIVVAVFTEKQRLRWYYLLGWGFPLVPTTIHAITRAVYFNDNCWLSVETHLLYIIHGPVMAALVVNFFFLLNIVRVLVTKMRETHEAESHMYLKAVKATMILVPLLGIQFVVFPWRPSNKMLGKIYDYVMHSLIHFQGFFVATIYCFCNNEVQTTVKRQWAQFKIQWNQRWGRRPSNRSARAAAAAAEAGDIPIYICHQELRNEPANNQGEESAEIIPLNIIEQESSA
T1 sequence (looked up) 2: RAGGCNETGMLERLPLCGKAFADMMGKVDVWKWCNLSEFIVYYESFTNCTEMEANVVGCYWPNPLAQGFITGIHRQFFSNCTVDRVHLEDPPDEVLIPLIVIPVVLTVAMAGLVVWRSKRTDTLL
Test: SPA displacement of 125I-rat amylin, hAmylin 3(a) receptor membranes
Outline: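 Cell membranes were prepared by homogenisation in Na-HEPES/EDTA buffer, pH 7.4, and stored at −80° C. They were then coupled to SPA beads at 35 ng/μL final and exposed to compounds in assay buffer containing CaCl2, MgCl₂, OA and Tween20. After 120 min at 25° C, plates were counted and IC₅₀ derived.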

B1: N^-1-[(4S)-4-carboxy-4-(19-carboxynonadecanoylamino)butanoyl]-Gly[Arg1,Arg17,Pro21,Pro27]-h-amylin (peptide)
peptide: {C20 diacid-γGlu}-GRCNTATCATQRLANFLRHSSPNFGAIPSSTNVGSNTY-NH2
modifications: disulfide 3-8
SMILES: CC[C@H](C)[C@H](NC(=O)[C@H](C)NC(=O)CNC(=O)[C@H](Cc1ccccc1)NC(=O)[C@H](CC(N)=O)NC(=O)[C@@H]1CCCN1C(=O)[C@H](CO)NC(=O)[C@H](CO)NC(=O)[C@H](Cc1c[nH]cn1)NC(=O)[C@H](CCCNC(=N)N)NC(=O)[C@H](CC(C)C)NC(=O)[C@H](Cc1ccccc1)NC(=O)[C@H](CC(N)=O)NC(=O)[C@H](C)NC(=O)[C@H](CC(C)C)NC(=O)[C@H](CCCNC(=N)N)NC(=O)[C@H](CCC(N)=O)NC(=O)[C@@H](NC(=O)[C@H](C)NC(=O)[C@@H]1CSSC[C@H](NC(=O)[C@H](CCCNC(=N)N)NC(=O)CNC(=O)CC[C@H](NC(=O)CCCCCCCCCCCCCCCCCCC(=O)O)C(=O)O)C(=O)N[C@@H](CC(N)=O)C(=O)N[C@@H]([C@@H](C)O)C(=O)N[C@@H](C)C(=O)N[C@@H]([C@@H](C)O)C(=O)N1)[C@@H](C)O)C(=O)N1CCC[C@H]1C(=O)N[C@@H](CO)C(=O)N[C@@H](CO)C(=O)N[C@H](C(=O)N[C@@H](CC(N)=O)C(=O)N[C@H](C(=O)NCC(=O)N[C@@H](CO)C(=O)N[C@@H](CC(N)=O)C(=O)N[C@H](C(=O)N[C@@H](Cc1ccc(O)cc1)C(N)=O)[C@@H](C)O)C(C)C)[C@@H](C)O
notes: also called 46; compound 46
- IC50: 195 pM

B2: N^ε-[2-[2-[2-[[(4S)-4-carboxy-4-(19-carboxynonadecanoylamino)butanoyl]amino]ethoxy]ethoxy]acetyl]Lys[Arg1,Arg17,Pro21,Pro27,His35]-h-amylin (peptide)
peptide: K([AEEA-γGlu-C20 diacid])RCNTATCATQRLANFLRHSSPNFGAIPSSTNVGSHTY-NH2
modifications: disulfide 3-8; N-terminus assumed
SMILES: CC[C@H](C)[C@H](NC(=O)[C@H](C)NC(=O)CNC(=O)[C@H](Cc1ccccc1)NC(=O)[C@H](CC(N)=O)NC(=O)[C@@H]1CCCN1C(=O)[C@H](CO)NC(=O)[C@H](CO)NC(=O)[C@H](Cc1c[nH]cn1)NC(=O)[C@H](CCCNC(=N)N)NC(=O)[C@H](CC(C)C)NC(=O)[C@H](Cc1ccccc1)NC(=O)[C@H](CC(N)=O)NC(=O)[C@H](C)NC(=O)[C@H](CC(C)C)NC(=O)[C@H](CCCNC(=N)N)NC(=O)[C@H](CCC(N)=O)NC(=O)[C@@H](NC(=O)[C@H](C)NC(=O)[C@@H]1CSSC[C@H](NC(=O)[C@H](CCCNC(=N)N)NC(=O)[C@@H](N)CCCCNC(=O)COCCOCCNC(=O)CC[C@H](NC(=O)CCCCCCCCCCCCCCCCCCC(=O)O)C(=O)O)C(=O)N[C@@H](CC(N)=O)C(=O)N[C@@H]([C@@H](C)O)C(=O)N[C@@H](C)C(=O)N[C@@H]([C@@H](C)O)C(=O)N1)[C@@H](C)O)C(=O)N1CCC[C@H]1C(=O)N[C@@H](CO)C(=O)N[C@@H](CO)C(=O)N[C@H](C(=O)N[C@@H](CC(N)=O)C(=O)N[C@H](C(=O)NCC(=O)N[C@@H](CO)C(=O)N[C@@H](Cc1c[nH]cn1)C(=O)N[C@H](C(=O)N[C@@H](Cc1ccc(O)cc1)C(N)=O)[C@@H](C)O)C(C)C)[C@@H](C)O
notes: also called 45; compound 45
- IC50: 552 pM
